Experimental findings from article PMC4786428, “Recombinational branch migration by the RadA/Sms paralog of RecA in Escherichia coli” are described below.

Data set [1] has as its target T1, RadA (Sms) wild type (Escherichia coli, UniProt P24554 1-460).
T1 sequence: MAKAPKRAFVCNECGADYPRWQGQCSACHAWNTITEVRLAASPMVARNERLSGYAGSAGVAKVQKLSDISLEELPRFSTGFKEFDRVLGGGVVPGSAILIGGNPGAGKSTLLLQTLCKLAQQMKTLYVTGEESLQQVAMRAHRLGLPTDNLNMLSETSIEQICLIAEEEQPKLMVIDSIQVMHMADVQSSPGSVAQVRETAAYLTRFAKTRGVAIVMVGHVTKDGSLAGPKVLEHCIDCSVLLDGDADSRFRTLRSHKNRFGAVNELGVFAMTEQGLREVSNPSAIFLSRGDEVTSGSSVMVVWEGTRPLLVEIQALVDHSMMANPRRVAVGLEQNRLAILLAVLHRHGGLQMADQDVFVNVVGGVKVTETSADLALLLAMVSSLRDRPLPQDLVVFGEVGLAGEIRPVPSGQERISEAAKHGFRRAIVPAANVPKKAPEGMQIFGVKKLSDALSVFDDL
Description: competition; unlabeled competitor vs labeled poly(dT)30, 1 mM ADP; 50 mM Tris-HCl pH 7.5, 10 mM MgCl2, 0.1 mM EDTA, 75 mM NaCl, 5 mM DTT, 100 ug/ml BSA, 1 mM nucleotide, 100 fmol DNA, 37 C for 20-30 min; 6% TBE polyacrylamide gel at room temperature. The settings on record: protein: recombinant; tags: eXact tag cleaved; 2 extra N-terminal residues Thr-Ser remain; chain copies: 6.

The target of data set [2] is T1, RadA (Sms) wild type. Nature of the data set: EMSA; 1 mM ADP (standard); apparent; Hill coefficient 1.5; 50 mM Tris-HCl pH 7.5, 10 mM MgCl2, 0.1 mM EDTA, 75 mM NaCl, 5 mM DTT, 100 ug/ml BSA, 1 mM nucleotide, 100 fmol DNA, 37 C for 20-30 min; 6% TBE polyacrylamide gel at room temperature. The settings on record: protein: recombinant; tags: eXact tag cleaved; 2 extra N-terminal residues Thr-Ser remain; chain copies: 6. Background: A gel shift assay detects complexes by their altered migration in electrophoresis.

As to AAAAAAAAAAAAAAAAAAAAAAAAAAAAAAAAA (ssDNA) [poly(dA)33], in the data set with RadA (Sms) wild type [1], the binding result is recorded as “no binding”.
Turning to TTTTTTTTTTTTTTTTTTTTTTTTTTTTTT (ssDNA) [poly(dT)30], the Kd with RadA (Sms) wild type [2] turned out to be 110 ± 14 nM.
